According to IntAct's records for PubMed 31515488:

B1: E3 ubiquitin-protein ligase ARIH2 (Homo sapiens), O95376 (parent)
chain: MSVDMNSQGSDSNEEDYDPNCEEEEEEEEDDPGDIEDYYVGVASDVEQQGADAFDPEEYQFTCLTYKESEGALNEHMTSLASVLKVSHSVAKLILVNFHWQVSEILDRYKSNSAQLLVEARVQPNPSKHVPTSHPPHHCAVCMQFVRKENLLSLACQHQFCRSCWEQHCSVLVKDGVGVGVSCMAQDCPLRTPEDFVFPLLPNEELREKYRRYLFRDYVESHYQLQLCPGADCPMVIRVQEPRARRVQCNRCNEVFCFKCRQMYHAPTDCATIRKWLTKCADDSETANYISAHTKDCPKCNICIEKNGGCNHMQCSKCKHDFCWMCLGDWKTHGSEYYECSRYKENPDIVNQSQQAQAREALKKYLFYFERWENHNKSLQLEAQTYQRIHEKIQERVMNNLGTWIDWQYLQNAAKLLAKCRYTLQYTYPYAYYMESGPRKKLFEYQQAQLEAEIENLSWKVERADSYDRGDLENQMHIAEQRRRTLLKDFHDT
B2: Ribonuclease P protein subunit p25-like protein (Homo sapiens), Q8N5L8 (parent)
chain: MEHYRKAGSVELPAPSPMPQLPPDTLEMRVRDGSKIRNLLGLALGRLEGGSARHVVFSGSGRAAGKAVSCAEIVKRRVPGLHQLTKLRFLQTEDSWVPASPDTGLDPLTVRRHVPAVWVLLSRDPLDPNECGYQPPGAPPGLGSMPSSSCGPRSRRRARDTRS
partner: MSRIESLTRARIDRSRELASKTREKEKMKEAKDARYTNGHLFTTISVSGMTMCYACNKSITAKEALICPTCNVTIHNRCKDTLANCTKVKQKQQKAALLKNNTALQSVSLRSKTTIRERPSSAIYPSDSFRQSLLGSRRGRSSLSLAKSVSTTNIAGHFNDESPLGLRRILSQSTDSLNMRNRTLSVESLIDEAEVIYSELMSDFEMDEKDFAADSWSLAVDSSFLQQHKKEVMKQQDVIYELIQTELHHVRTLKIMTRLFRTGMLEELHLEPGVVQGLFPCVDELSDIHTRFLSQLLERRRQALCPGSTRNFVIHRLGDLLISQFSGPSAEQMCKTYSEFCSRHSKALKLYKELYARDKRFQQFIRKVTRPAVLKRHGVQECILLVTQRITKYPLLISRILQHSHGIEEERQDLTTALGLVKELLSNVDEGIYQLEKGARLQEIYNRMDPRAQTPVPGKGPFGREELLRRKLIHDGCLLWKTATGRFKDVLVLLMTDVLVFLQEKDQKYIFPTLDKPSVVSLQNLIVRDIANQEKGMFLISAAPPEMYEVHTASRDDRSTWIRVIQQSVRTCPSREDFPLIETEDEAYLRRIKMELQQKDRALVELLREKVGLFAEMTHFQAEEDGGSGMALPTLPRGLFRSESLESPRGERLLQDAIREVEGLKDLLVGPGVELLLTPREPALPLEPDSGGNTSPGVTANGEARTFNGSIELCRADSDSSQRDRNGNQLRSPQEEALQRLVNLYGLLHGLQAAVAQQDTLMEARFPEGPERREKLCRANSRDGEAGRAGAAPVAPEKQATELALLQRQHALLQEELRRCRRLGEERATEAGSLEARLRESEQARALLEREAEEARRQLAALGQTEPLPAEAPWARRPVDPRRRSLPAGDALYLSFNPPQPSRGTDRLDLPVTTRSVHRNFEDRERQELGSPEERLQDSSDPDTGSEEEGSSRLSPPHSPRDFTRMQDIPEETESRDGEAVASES
B3: Ligand of Numb protein X 2 (Homo sapiens), Q8N448 (parent)
chain: MGTTSDEMVSVEQTSSSSLNPLCFECGQQHWTRENHLYNYQNEVDDDLVCHICLQPLLQPLDTPCGHTFCYKCLRNFLQEKDFCPLDRKRLHFKLCKKSSILVHKLLDKLLVLCPFSSVCKDVMQRCDLEAHLKNRCPGASHRRVALERRKTSRTQAEIENENGPTLLDPAGTLSPEADCLGTGAVPVERHLTSASLSTWSEEPGLDNPAFEESAGADTTQQPLSLPEGEITTIEIHRSNPYIQLGISIVGGNETPLINIVIQEVYRDGVIARDGRLLAGDQILQVNNYNISNVSHNYARAVLSQPCNTLHLTVLRERRFGNRAHNHSDSNSPREEIFQVALHKRDSGEQLGIKLVRRTDEPGVFILDLLEGGLAAQDGRLSSNDRVLAINGHDLKYGTPELAAQIIQASGERVNLTIARPGKPQPGNTIREAGNHSSSSQHHTPPPYYSRPSSHKDLTQCVTCQEKHITVKKEPHESLGMTVAGGRGSKSGELPIFVTSVPPHGCLARDGRIKRGDVLLNINGIDLTNLSHSEAVAMLKASAASPAVALKALEVQIVEEATQNAEEQPSTFSENEYDASWSPSWVMWLGLPSTLHSCHDIVLRRSYLGSWGFSIVGGYEENHTNQPFFIKTIVLGTPAYYDGRLKCGDMIVAVNGLSTVGMSHSALVPMLKEQRNKVTLTVICWPGSLV
partner: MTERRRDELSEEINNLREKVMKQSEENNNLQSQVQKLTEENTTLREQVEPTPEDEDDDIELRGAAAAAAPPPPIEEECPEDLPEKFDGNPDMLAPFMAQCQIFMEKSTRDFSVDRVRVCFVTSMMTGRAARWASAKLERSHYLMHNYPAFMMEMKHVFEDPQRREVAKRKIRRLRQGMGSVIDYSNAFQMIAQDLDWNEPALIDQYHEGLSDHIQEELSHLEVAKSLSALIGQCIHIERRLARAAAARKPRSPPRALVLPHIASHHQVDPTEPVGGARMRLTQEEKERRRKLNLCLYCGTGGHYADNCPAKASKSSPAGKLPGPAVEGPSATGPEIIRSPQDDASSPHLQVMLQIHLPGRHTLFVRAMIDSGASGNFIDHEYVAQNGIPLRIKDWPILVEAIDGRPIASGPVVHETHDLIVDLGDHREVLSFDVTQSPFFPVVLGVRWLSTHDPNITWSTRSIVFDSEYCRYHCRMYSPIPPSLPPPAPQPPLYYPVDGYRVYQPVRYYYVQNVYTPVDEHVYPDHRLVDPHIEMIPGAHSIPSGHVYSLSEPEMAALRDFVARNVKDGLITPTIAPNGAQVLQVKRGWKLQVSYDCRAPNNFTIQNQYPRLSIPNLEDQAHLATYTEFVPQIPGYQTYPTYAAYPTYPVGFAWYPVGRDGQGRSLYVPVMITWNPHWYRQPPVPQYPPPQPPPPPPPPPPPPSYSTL
B4: Protein FAM13C (Homo sapiens), Q8NE31 (parent)
chain: MFSCFCFSLQDNSFSSTTVTECDEDPVSLHEDQTDCSSLRDENNKENYPDAGALVEEHAPPSWEPQQQNVEATVLVDSVLRPSMGNFKSRKPKSIFKAESGRSHGESQETEHVVSSQSECQVRAGTPAHESPQNNAFKCQETVRLQPRIDQRTAISPKDAFETRQDLNEEEAAQVHGVKDPAPASTQSVLADGTDSADPSPVHKDGQNEADSAPEDLHSVGTSRLLYHITDGDNPLLSPRCSIFSQSQRFNLDPESAPSPPSTQQFMMPRSSSRCSCGDGKEPQTITQLTKHIQSLKRKIRKFEEKFEQEKKYRPSHGDKTSNPEVLKWMNDLAKGRKQLKELKLKLSEEQGSAPKGPPRNLLCEQPTVPRENGKPEAAGPEPSSSGEETPDAALTCLKERREQLPPQEDSKVTKQDKNLIKPLYDRYRIIKQILSTPSLIPTIQEEEDSDEDRPQGSQQPSLADPASHLPVGDHLTYSNETEPVRALLPDEKKEVKPPALSMSNLHEATMPVLLDHLRETRADKKRLRKALREFEEQFFKQTGRSPQKEDRIPMADEYYEYKHIKAKLRLLEVLISKQDVAKTI
partner: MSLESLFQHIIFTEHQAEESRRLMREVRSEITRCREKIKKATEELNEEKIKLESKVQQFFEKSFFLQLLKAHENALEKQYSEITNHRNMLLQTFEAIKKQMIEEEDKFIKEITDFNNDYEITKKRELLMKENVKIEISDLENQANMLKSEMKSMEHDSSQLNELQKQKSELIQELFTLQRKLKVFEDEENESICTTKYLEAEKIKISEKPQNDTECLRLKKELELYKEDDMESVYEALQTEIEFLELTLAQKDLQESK
B5: Polymerase delta-interacting protein 3 (Homo sapiens), Q9BY77 (parent)
chain: MADISLDELIRKRGAAAKGRLNARPGVGGVRSRVGIQQGLLSQSTRTATFQQRFDARQKIGLSDARLKLGVKDAREKLLQKDARFRIKGKVQDAREMLNSRKQQTTVPQKPRQVADAREKISLKRSSPAAFINPPIGTVTPALKLTKTIQVPQQKAMAPLHPHPAGMRINVVNNHQAKQNLYDLDEDDDGIASVPTKQMKFAASGGFLHHMAGLSSSKLSMSKALPLTKVVQNDAYTAPALPSSIRTKALTNMSRTLVNKEEPPKELPAAEPVLSPLEGTKMTVNNLHPRVTEEDIVELFCVCGALKRARLVHPGVAEVVFVKKDDAITAYKKYNNRCLDGQPMKCNLHMNGNVITSDQPILLRLSDSPSMKKESELPRRVNSASSSNPPAEVDPDTILKALFKSSGASVTTQPTEFKIKL
partner: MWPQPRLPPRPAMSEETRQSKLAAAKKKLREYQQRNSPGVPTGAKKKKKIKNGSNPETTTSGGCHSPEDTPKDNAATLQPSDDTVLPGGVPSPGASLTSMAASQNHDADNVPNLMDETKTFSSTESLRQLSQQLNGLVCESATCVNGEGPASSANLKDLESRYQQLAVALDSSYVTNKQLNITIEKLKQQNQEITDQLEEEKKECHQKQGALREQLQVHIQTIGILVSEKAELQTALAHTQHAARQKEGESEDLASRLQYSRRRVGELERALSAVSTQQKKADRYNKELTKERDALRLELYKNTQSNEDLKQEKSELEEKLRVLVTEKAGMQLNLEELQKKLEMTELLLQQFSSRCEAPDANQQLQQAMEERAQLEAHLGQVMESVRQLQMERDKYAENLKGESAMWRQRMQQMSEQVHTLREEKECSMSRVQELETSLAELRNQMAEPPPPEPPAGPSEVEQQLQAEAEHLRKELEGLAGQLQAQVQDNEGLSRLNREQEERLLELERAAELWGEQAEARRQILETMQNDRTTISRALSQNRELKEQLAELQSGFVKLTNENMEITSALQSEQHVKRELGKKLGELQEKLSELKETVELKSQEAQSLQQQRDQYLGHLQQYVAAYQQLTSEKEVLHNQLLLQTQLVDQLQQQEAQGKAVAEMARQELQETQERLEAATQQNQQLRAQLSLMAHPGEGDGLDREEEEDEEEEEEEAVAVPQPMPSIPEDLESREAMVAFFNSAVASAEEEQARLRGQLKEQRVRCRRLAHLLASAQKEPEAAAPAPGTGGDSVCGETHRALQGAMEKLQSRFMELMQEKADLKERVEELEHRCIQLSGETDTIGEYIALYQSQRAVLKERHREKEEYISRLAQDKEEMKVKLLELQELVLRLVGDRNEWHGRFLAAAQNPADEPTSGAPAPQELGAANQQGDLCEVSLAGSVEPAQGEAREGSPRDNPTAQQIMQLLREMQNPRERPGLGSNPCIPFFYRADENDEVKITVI
B6: Transcription factor 12 (Homo sapiens), Q99081 (parent)
chain: MNPQQQRMAAIGTDKELSDLLDFSAMFSPPVNSGKTRPTTLGSSQFSGSGIDERGGTTSWGTSGQPSPSYDSSRGFTDSPHYSDHLNDSRLGAHEGLSPTPFMNSNLMGKTSERGSFSLYSRDTGLPGCQSSLLRQDLGLGSPAQLSSSGKPGTAYYSFSATSSRRRPLHDSAALDPLQAKKVRKVPPGLPSSVYAPSPNSDDFNRESPSYPSPKPPTSMFASTFFMQDGTHNSSDLWSSSNGMSQPGFGGILGTSTSHMSQSSSYGNLHSHDRLSYPPHSVSPTDINTSLPPMSSFHRGSTSSSPYVAASHTPPINGSDSILGTRGNAAGSSQTGDALGKALASIYSPDHTSSSFPSNPSTPVGSPSPLTGTSQWPRPGGQAPSSPSYENSLHSLQSRMEDRLDRLDDAIHVLRNHAVGPSTSLPAGHSDIHSLLGPSHNAPIGSLNSNYGGSSLVASSRSASMVGTHREDSVSLNGNHSVLSSTVTTSSTDLNHKTQENYRGGLQSQSGTVVTTEIKTENKEKDENLHEPPSSDDMKSDDESSQKDIKVSSRGRTSSTNEDEDLNPEQKIEREKERRMANNARERLRVRDINEAFKELGRMCQLHLKSEKPQTKLLILHQAVAVILSLEQQVRERNLNPKAACLKRREEEKVSAVSAEPPTTLPGTHPGLSETTNPMGHM
partner: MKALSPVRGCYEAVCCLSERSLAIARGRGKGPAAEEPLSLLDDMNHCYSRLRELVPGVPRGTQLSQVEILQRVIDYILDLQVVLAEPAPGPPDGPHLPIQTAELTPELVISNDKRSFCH

Variants of: B1
Settings: with ub2l6_human UBE2L6, O14933
Chain of ub2l6_human UBE2L6, O14933 (O14933 whole entry): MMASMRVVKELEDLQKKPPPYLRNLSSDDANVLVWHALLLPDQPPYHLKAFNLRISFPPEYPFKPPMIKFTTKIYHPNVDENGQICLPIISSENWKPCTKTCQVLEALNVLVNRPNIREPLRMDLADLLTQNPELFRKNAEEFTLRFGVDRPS

Row | effect of a mutation on the interaction | Variant
1 | with no effect | E29D

Variants of: B1
Settings: with bub1_human BUB1, O43683
Chain of bub1_human BUB1, O43683 (O43683 whole entry, looked up): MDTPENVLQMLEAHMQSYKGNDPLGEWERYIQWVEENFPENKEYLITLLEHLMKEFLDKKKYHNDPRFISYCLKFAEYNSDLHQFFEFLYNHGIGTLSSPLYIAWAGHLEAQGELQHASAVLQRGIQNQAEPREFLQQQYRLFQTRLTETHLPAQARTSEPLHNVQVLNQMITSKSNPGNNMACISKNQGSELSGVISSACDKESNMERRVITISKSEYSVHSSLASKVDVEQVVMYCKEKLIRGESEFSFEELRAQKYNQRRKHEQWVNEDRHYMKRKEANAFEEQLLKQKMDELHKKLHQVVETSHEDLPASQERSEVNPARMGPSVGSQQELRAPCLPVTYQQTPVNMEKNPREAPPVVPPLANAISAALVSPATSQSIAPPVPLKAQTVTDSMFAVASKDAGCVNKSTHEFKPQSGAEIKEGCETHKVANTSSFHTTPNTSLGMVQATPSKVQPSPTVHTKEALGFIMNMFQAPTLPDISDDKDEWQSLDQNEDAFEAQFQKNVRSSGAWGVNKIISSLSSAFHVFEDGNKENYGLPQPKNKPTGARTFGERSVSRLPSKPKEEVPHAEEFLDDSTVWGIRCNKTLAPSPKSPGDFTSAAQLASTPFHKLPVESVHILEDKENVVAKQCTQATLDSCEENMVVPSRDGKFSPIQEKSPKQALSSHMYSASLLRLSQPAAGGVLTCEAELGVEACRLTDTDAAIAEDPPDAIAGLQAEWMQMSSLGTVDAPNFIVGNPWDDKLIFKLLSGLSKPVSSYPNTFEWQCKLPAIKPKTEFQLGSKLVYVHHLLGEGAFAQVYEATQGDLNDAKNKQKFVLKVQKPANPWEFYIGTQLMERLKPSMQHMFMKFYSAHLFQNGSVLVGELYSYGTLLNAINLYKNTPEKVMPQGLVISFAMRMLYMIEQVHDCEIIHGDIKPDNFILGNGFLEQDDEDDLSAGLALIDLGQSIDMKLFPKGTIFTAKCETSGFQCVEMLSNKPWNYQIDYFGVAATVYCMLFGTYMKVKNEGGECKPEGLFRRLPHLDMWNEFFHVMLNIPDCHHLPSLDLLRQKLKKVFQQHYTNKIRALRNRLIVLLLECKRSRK

Row | effect of a mutation on the interaction | Variant
2 | with no effect | E29D

Variants of: B2
Settings: with arhg2_human ARHGEF2, Q92974

Row | effect of a mutation on the interaction | Variant
3 | with no effect | R155Q
4 | with no effect | D127N

Variants of: B3
Settings: with peg10_human PEG10, Q86TG7

Row | effect of a mutation on the interaction | Variant
5 | with no effect | T183I
6 | with no effect | V145I

Variants of: B4
Settings: with cc172_human CCDC172, P0C7W6

Row | effect of a mutation on the interaction | Variant
7 | with no effect | P147S

Variants of: B5
Settings: with goga2_human GOLGA2, Q08379

Row | effect of a mutation on the interaction | Variant
8 | with no effect | A15T
9 | with no effect | A16V
10 | disrupting interaction strength | R118Q

Variants of: B6
Settings: with id3_human ID3, Q02535

Row | effect of a mutation on the interaction | Variant
11 | with no effect | G300S
12 | with no effect | L483R
